One assay deals with T1, lysyl oxidase (LO) (Bos taurus, UniProt P33072).
T1 construct: per mature LO molecule (32 kD); from tissue
T1 sequence (P33072 170-418): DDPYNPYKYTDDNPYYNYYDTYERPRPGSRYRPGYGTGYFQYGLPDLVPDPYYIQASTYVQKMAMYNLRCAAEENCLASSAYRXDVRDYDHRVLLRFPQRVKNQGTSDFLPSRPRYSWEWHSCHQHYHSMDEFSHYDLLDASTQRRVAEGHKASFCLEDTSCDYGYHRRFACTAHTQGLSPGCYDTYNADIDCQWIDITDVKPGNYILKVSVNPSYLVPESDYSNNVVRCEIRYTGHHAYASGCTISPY
The assay can be described thus: LO-dependent H2O2 release, horseradish peroxidase-coupled fluorescence assay (substrate potential for LO). It is filed as biochemical. The method, then: The oxidation of a primary amine substrate by LO yields stoichiometric amounts of the corresponding aldehyde, hydrogen peroxide and ammonia, as shown: RCH2NH2+O2+H2O→RCHO+H2O2+NH3 (Kagan, 1986). To assess the substrate potential of FGF2, LO-dependent H2O2 release was monitored in assays using FGF2 as the sole substrate, using both the optimum temperature for LO activity of 55° C. and the physiological temperature of 37° C. (Trackman et al., 1981).
LO reaction with FGF2 as a substrate was assessed by a horseradish peroxidase-coupled fluorescence assay for H2O2 production. Reaction mixtures contained 0.25 mg of sodium homovanillate(HVA), 40 μg of HRP, and FGF2 at doses as indicated below in 0.05 M sodium borate buffer, pH 8.2, in a final volume of 2 ml. Assays were initiated by the addition of LO to reaction mixtures. H2O2 release was continuously monitored at excitation and emission wavelengths of 315 and 425 nm, respectively, at a constant temperature of 55° C. or 37° C., as specified, in the thermostatted cuvette chamber of an SLM Aminco Bowman Series 2 Luminescence Spectrometer. All activity data were corrected for background rates of H2O2 release determined in complete assay mixtures supplemented with 200 μM BAPN, an irreversible inhibitor of LO. In FIG. 4, solid curves represent the time course of H2O2 release at 55° C. in the reaction of 0.16 μM LO with 0.23 (a), 0.45 (b) and 0.9 (c) μM FGF2, respectively. Dotted curve (d) represents the time course of H2O2 release in the reaction of 0.16 μM LO with 0.9 μM FGF2 at 37° C. The same data were obtained from three separate experiments.
Using the fluorometric assay (Trackman et al., 1981) to monitor LO-dependent H2O2 release in vitro, the substrate potential of other growth factors was also assessed. Major members of the FGF family tested included FGF 1, 4, 5, 6, 7 and EGF (note: All factors are human recombinant forms purchased from R & D Systems, Inc., Minneapolis, Minn.).
A human recombinant disulfide-linked dimer of VEGF165 (MW: 42 kDa)(R & D Systems) as a sole substrate was tested by using the standard in vitro LO catalysis assays as described above for FIG. 4 (Trackman et al., 1981). Curves represent the time course of H2O2 release at 55° C. (a) or 37° C. (b) in the reaction of 0.10 μM LO with 0.45 μM VEGF165. All activity data were corrected for background rates of H2O2 release determined in complete assay mixtures supplemented with the same amounts of LO preincubated with 100 μM BAPN for 15 min at 37° C. The same data were obtained from three separate experiments.
The standard in vitro LO catalysis assays as described above for FIG. 4 (Trackman et al., 1981) using human recombinant PDGF-AB (R & D Systems) as a sole substrate was tested. […] In FIG. 19, curves represent the time course of H2O2 release at 55° C. (a) and 37° C. (b) in the reaction of 0.11 μM LO with 0.46 μM PDGF-AB, respectively. All activity data were corrected for background rates of H2O2 release determined in complete assay mixtures supplemented with the same amounts of LO preincubated with 100 μM BAPN for 15 minutes at 37° C. The same data were obtained from three separate experiments.
To analyze the substrate potential of Tat, the standard in vitro LO catalysis assays as described in FIG. 4 (Trackman et al., 1981) was performed at the optimum temperature of 55° C. and at the physiological temperature of 37° C. A recombinant Tat with 9 lysines in a total of 86 amino acids was used as a sole substrate. FIG. 12A represents a dose and temperature-dependent response. Curves represent the time course of H2O2 release at 55° C. (solid) or 37° C. (dotted) in the reaction of 0.10 μM LO with 0.22 (a and d), 0.43 (b and e) and 0.85 (c and f) μM Tat, respectively. All activity data were corrected for background rates of H2O2 release determined in complete assay mixtures supplemented with the same amounts of LO preincubated with 100 μM BAPN for 15 min at 37° C. […]

In assay [1] the test system is porcine pulmonary arterial vascular endothelial cells (VEC). The assay can be described thus: Growth of Tat-stimulated vascular endothelial cells (cell counting, phase-contrast microscopy). It is filed as cell-based. Particulars: 3 days, 5% FBS/M199. The method, then: Stimulation of cell proliferation of porcine pulmonary arterial vascular endothelial cells (VEC) was tested with LO-oxidized Tat. VEC (2×10^4) were plated and incubated overnight in 35 mm-dishes containing 2 ml 15% FBS/M199 medium, and then refed with 5% FBS/M199 with different treatment regimens as shown in A, B and C of FIG. 13. FIG. 13A represents a dose response of Tat-stimulated cell growth. Media were supplemented with Tat at the indicated doses and cells were incubated for additional 3 days. Cultures were refed once during the incubation period with fresh media supplemented with Tat at indicated doses. Cells were harvested by trypsinization and counted with a hemacytometer. FIG. 13B represents the LO inhibition of Tat-stimulated cell growth. FIG. 13C represents the effects of inactivation of LO by BAPN on Tat-stimulated cell growth. LO: 3 or 10 nM, Tat: 10 ng ml^−1, BAPN: 100 μM. Data represent the means (±sd) of three separate experiments each assessed with triplicate dishes.
Numerical and morphological alterations in Tat-stimulated VEC cells treated with LO were observed under phase-contrast microscopy (25'). Cells were cultured as described in FIG. 13 and treated with additives as indicated below. The following represents FIG. 14 phase contrast microscopy: A, control; B, 10 ng ml^−1Tat; C, 10 ng ml^−1 Tat+3 nM LO; D, 10 ng ml^−1 Tat+3 nM LO that was preincubated with 100 μM BAPN for 15 min at 370; E, 100 μM BAPN, alone, and F, 3 nM LO, alone.

In a further assay the test system is VEC on Matrigel. Briefly: Angiogenic response of Tat-stimulated VEC on Matrigel. It is filed as cell-based. To be noted: 10 ng/ml Tat, 1 h preincubation and 3 h Tat exposure. How it is done:
VEC grown on Matrigel, a solid gel of basement membrane proteins, rapidly align and form capillary-like structures providing a convenient in vitro model for angiogenesis studies (Albini et al., 1995; Grant et al.). Tat has been reported to enhance this in vitro morphogenesis of VEC consistent with its angiogenic property (Albini et al., 1995).
Cells (3×10^5) were plated on Matrigel-coated dishes. After 1 h incubation, various reagents were added to each culture. […] The following represents FIG. 15 phase-contrast microscopy: A, control; B, 10 ng ml^−1 Tat; C, 10 ng ml^−1 Tat+10 nM LO; D, 10 ng ml^−1 Tat+10 nM LO that was preincubated with 100 μM BAPN for 15 min at 370; E, 100 μM BAPN, alone, and F, 10 nM LO, alone.

With “Tat: recombinant HIV-1 Tat with 9 lysines in a total of 86 amino acids”, the “maximum release of H2O2 per mole of Tat” value is 4.85 moles of H2O2 per mole of Tat in the assay with lysyl oxidase (LO) (37° C., 0.1 μM LO, 0.22 μM Tat); 4.75 moles of H2O2 per mole of Tat with lysyl oxidase (LO) (37° C., 0.1 μM LO, 0.43 μM Tat); 4.80 moles of H2O2 per mole of Tat in the assay with lysyl oxidase (LO) (37° C., 0.1 μM LO, 0.85 μM Tat). Further, the “H2O2 released per mole of Tat, time course” value was 4.05±0.05 moles of H2O2 released per mole of Tat with lysyl oxidase (LO) (37° C., 0.1 μM LO, 20 min) and 4.80±0.04 moles of H2O2 released per mole of Tat in the assay with lysyl oxidase (LO) (37° C., 0.1 μM LO, 30 min). In the assay with lysyl oxidase (LO) (37° C., 0.1 μM LO, average over 0.22, 0.43 and 0.85 μM Tat), the “maximum release of H2O2 per mole of Tat, average” value was 4.80±0.05 moles of H2O2 per mole of Tat. Further, the “molar ratio of H2O2 released per mole of Tat at the plateau” value is 8.42 with lysyl oxidase (LO) (55° C., 0.1 μM LO, 0.22 μM Tat); 8.88 with lysyl oxidase (LO) (55° C., 0.1 μM LO, 0.43 μM Tat); 9.31 in the assay with lysyl oxidase (LO) (55° C., 0.1 μM LO, 0.85 μM Tat). Besides, in the assay with lysyl oxidase (LO) (55° C., 0.1 μM LO, mean over 0.22, 0.43 and 0.85 μM Tat), the “molar ratio of H2O2 released per mole of Tat, mean±standard deviation” value turned out to be 8.87±0.45. Moreover, the “substrate of LO (in words)” value with lysyl oxidase (LO) (factor as sole substrate, LO-dependent H2O2 release in vitro) is given as “excellent substrate of LO”. For the same substance, the “dose of maximum stimulation of cell proliferation” value in assay [1] is 10 ng/mL. For the same substance, the “formation of capillary like structures” value in the assay with VEC on Matrigel is recorded as “facilitated the formation of capillary like structures”.
